Experimental data from paper PMC4609913 (2015).

Key:
[1] = target: recombinant ADAM17 (A Disintegrin and Metalloproteinase 17) (UniProt P78536 215-671); assay: FRET
[2] = target: T1, recombinant ADAM10 (A Disintegrin and Metalloproteinase 10) (UniProt O14672 20-748); assay: FRET
T1 chain: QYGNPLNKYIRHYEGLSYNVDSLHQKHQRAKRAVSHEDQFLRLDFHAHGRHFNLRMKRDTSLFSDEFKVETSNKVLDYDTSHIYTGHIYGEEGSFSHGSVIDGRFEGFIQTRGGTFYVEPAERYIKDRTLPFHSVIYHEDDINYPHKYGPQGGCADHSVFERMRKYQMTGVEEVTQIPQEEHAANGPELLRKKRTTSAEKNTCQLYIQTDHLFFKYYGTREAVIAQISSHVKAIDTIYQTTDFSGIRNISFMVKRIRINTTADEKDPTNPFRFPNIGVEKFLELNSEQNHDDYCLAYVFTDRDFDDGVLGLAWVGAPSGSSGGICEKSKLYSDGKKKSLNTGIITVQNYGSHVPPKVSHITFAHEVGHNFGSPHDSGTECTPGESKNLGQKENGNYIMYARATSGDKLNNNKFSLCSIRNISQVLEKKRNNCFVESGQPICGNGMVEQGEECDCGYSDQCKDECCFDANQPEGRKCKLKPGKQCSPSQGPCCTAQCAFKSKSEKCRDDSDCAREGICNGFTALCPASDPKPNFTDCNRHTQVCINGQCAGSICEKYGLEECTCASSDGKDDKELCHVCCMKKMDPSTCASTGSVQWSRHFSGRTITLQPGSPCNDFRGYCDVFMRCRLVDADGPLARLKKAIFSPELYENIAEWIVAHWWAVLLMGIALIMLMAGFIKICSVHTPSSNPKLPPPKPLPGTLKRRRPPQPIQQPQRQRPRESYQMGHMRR

Chain of recombinant ADAM17 (A Disintegrin and Metalloproteinase 17) (P78536 215-671): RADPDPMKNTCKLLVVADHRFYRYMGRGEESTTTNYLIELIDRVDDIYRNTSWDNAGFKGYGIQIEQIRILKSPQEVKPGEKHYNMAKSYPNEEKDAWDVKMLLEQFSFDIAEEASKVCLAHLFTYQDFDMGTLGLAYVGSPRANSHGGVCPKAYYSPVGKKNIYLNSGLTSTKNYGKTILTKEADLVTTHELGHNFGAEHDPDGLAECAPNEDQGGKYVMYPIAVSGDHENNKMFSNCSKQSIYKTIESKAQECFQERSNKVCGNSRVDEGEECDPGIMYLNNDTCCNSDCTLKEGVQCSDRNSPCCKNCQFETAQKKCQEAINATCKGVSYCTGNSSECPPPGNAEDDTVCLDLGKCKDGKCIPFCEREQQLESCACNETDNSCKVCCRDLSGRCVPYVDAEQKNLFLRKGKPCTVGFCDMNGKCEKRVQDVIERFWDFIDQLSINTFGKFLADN

- Ki [1]: > 14 µM
- Ki [2]: > 14 µM
B1: recombinant His-tagged human ADAM12 prodomain (amino acids 29-206) (domain or fragment)
chain: RGVSLWNQGRADEVVSASVGSGDLWIPVKSFDSKNHPEVLNIRLQRESKELIINLERNEGLIASSFTETHYLQDGTDVSLARNYTVILGHCYYHGHVRGYSDSAVSLSTCSGLRGLIVFENESYVLEPMKSATNRYKLFPAKKLKSVRGSCGSHHNTPNLAAKNVFPPPSQTWARRHK
